# Measured values taken from the DeepSol protein solubility set.
# Assay: soluble on expression in E. coli; label from the status in PepcDB or PDB records
row,Sequence,soluble on expression in E. coli
1,MSLDSWSRNFELLINSRTPLIWIRTKEEERLYKVIDKSCKKLNIKRFVSWDCVNGIKGVLNENGKFSNNPMGVLNWIKAQTSEIPTILLVRDFHKFYDDPSISRTIKELSSSLRETNNNLILSSHILPSSEELDDLITILNLPLPDLSELTALIKKIAFNTDSDLSEQDLNELAIASSGLSEIKVKQVTAKALAQRGKISKFDIKDMLEEKKQVIARSEGHHHHHH,soluble
2,MSLDTTGITPTSIRIGSTSPQSGPVSAYGVQARCQAAYFKMINDRGGIAGRKIDFIYYDDAFNPAKTVEQTRKLVESDEVALLFSNLGTATNSAIVKYANAKKIPHLFLSVNGDKWSDYKAHPWSIGFAPSARTEAAIFVKHMLAEKPDAKFAVLYQNDDFGKDFVLGAKDVLGERESRQLVTISHETSDPTIDSQILQLRAAAPDALISGTTAKFTAQAIRKVAETRWQVRHYITGGSSSYAGTIGPAGPENAVGVISSAYLKDVADPAWKDDQGIKDFLAFMQSYFPEGNKDDFYNLYAYTVASALVKVLTQCGDGWTRENIMAQATNLKDVELPTLLPGIRVNTSPTDYRPLTQVQLQKWDGKAWVRFGDVLGAEGHHHHHH,soluble
3,MSLDTVVKVGFAAPLTGPNANYGKDLENGVKMALDDAKAQGVKINGQPVTFQLVAEDDQADPRIGVQVAQKLIDEGVSVVVGHFNSGTTIPASNLYEKAGLPDIDPAATNPTISSRGFKNMFMVISSDAQNAGTAGAYAVETTKAKRIAVIDDRTAFGQGEADEFVKAVKAHGGDIIDREYTTNQATDFKTQLTNLKAKNPDLIFVGALNPQAAGIMKQMNQLGIKAQYVGGGGVKDIDFIKLAGDVSEGAMAWEYGRPLDSTPVGAKFAERFKQKFGEDVLSYAPFGYDAAWAAIKAMQAANSTKPDDYRSKLQSISFEGITGHIEFNANGSLKNGSSTVYQVKNGQWVTVKTVSGEGHHHHHH,soluble
4,MSLDVTAKYELIGLMAYPIRHSLSPEMQNKALEKAGLPFTYMAFEVDNDSFPGAIEGLKALKMRGTGVSMPNKQLACEYVDELTPAAKLVGAINTIVNDDGYLRGYNTDGTGHIRAIKESGFDIKGKTMVLLGAGGASTAIGAQGAIEGLKEIKLFNRRDEFFDKALAFAQRVNENTDCVVTVTDLADQQAFAEALASADILTNGTKVGMKPLENESLVNDISLLHPGLLVTECVYNPHMTKLLQQAQQAGCKTIDGYGMLLWQGAEQFTLWTGKDFPLEYVKQVMGFGAEGGSHHHHHH,soluble
5,MSLDWNRLKPTINQKVSAELNRPFAIRGDLGVVWERQKQETGWRSWVPWPHVHAEDIILGNPPDIPEVTMVHLPRVEATLAPLALLTKTVWLPWIKLEKPDARLIRLSEKNNNWTFNLANDDNKDANAKPSAWSFRLDNILFDQGRIAIDDKVSKADLEIFVDPLGKPLPFSEVTGSKGKADKEKVGDYVFGLKAQGRYNGEPLTGTGKIGGMLALRGEGTPFPVQADFRSGNTRVAFDGVVNDPMKMGGVDLRLKFSGDSLGDLYELTGVLLPDTPPFETDGRLVAKIDTEKSSVFDYRGFNGRIGDSDIHGSLVYTTGKPRPKLEGDVESRQLRLADLGPLIGVDSGKGAEKSKRSEQKKGEKSVQPAGKVLPYDRFETDKWDVMDADVRFKGRRIEHGSSLPISDLSTHIILKNADLRLQPLKFGIAGGSIAANIHLEGDKKPMQGRADIQARRLKLKELMPDVELMQKTLGEMNGDAELRGSGNSVAALLGNSNGNLKLLMNDGLVSRNLMEIVGLNVGNYIVGAIFGDDEVRVNCAAANLNIANGVARPQIFAFDTENALINVTGTASFASEQLDLTIDPESKGIRIITLRSPLYVRGTFKNPQAGVKAGPLIARGAVAAALATLVTPAAALLALISPSEGEANQCRTILSQMKKEGHHHHHH,soluble
6,MSLEAVIFDMDGVLMDTEPLYFEAYRRVAESYGKPYTEDLHRRIMGVPEREGLPILMEALEIKDSLENFKKRVHEEKKRVFSELLKENPGVREALEFVKSKRIKLALATSTPQREALERLRRLDLEKYFDVMVFGDQVKNGKPDPEIYLLVLERLNVVPEKVVVFEDSKSGVEAAKSAGIERIYGVVHSLNDGKALLEAGAVALVKPEEILNVLKEVLEGHHHHHH,soluble
7,MSLEDGYKVEVGKNAYLPCSYTLPTSGTLVPMCWGKGFCPWSQCTNELLRTDERNVTYQKSSRYQLKGDLNKGDVSLIIKNVTLDDHGTYCCRIQFPGLMNDKKLELKLDIKAALVPR,soluble
8,MSLEEETYVVFDVETTGLSAVYDTIIELAAVKVKGGEIIDKFEAFANPHRPLSATIIELTGITDDMLQDAPDVVDVIRDFREWIGDDILVAHNASFDMGFLNVAYKKLLEVEKAKNPVIDTLELGRFLYPEFKNHRLNTLCKKFDIELTQHHRAIYDTEATAYLLLKMLKDAAEKGIQYHDELNENMGQSNAYQRSRPYHATLLAVNSTGLKNLFKLVSLSHIHYFYRVPRIPRSQLEKYREGLLIGSACDRGEVFEGMMQKSPEEVEDIASFYDYLEVQPPEVYRHLLELELVRDEKALKEIIANITKLGEKLNKPVVATGNVHYLNDEGHHHHHH,not soluble
9,MSLEEPRGINYVELSTDDLGTLTRQMHQLGFQFIGYHRSKPHVQLWLRGQARIIVSEVTEEAGTTSAPVNGTFLRGIGFEVTDSQSAMDRAALLHAEEVPRDQAHDDEVLRGVFAPDGSEVFFHQFDAATPAWIKEFGHDHDEQVSHIDHVNLAQPSNHYDEAVLFYTSLLALHAQSSQDVPSPSGLVRSQVMSSTDGSVRMPLNVSPQPNAEAVAGRGIGSVVEAYPEHVAVACEDIFQAAATALSRGLDFLPVPQNYYEDLDSRFDLDLEFLQRLQENHVLYDRDEHGEFLHFYTSTIGSVFFEMIERRGDYLGFGAPDAPVRLAAQHRKNSQREGHHHHHH,not soluble
10,MSLEFLNSLSYGISSHEVNNEFKQIFRELLTNHIIKEHKNKYYLNNGFAFGVLDISSKGTGFLQCFDESFKKDLLIENKNLKGANYKDIVAVKLLPLKKKRPSAKVILVLKRANETSLMITKRYGEAVLGMNIKTGLSTALKASQKSLKALPLGTILKIENENNNIIEVLGHIDDESVDEKISLALFNKNNEFSDACIKEALANGDSVDASMYENRMDLRALPFCTIDPIHAKDFDDAIYFDTQKREIYVAIADVSEYVYAYSAIDKEARNRGFSIYFPHIAIPMLPRPLSENICSLKPHLDRLAYCFKITLNHENKVIKEELFEGIINSKRRFNYDEVDEILIQKPDLKELSWLYELFEITKNLRKMRLKNAFEFRTEELRMNLDENLSLKSTVFEKDTPSHNLIEDCMLLANKAAAKLIDIGVFRNHLSADVRKIDKLLNELRELGIDVNFKPNLPELIRDIQALADELNLRAEVDKLIIKAQKKAEYSSVNAGHFGLGFDKYSHFTSPIRRYSDLILHRLLKAKQKNDEKLFNYLLLNIESTCENLSTLEREADKVAFDFMDRKFARWAAKNIGKKFKALVVQNDGVCIAKLDDEIKGADIILYDTRVNLLENVEVQIMEADIVMAKIYAKITQRLIKEENVEGHHHHHH,not soluble
11,MSLEFQLDLIRGEHMEIEKLLEQVNWEKNNGIVPVIVQDEKGEVLTLAYMNKEALRKTLETGIAHYYSRSKGRIRMKGEVSGNIQTVKEIKIDCDNDALLLIVSPKGPACHTGNYSCFYRKLGEPERVLPIDYSLSILKELEEIIKRRKETPVEGSYTSKLFKEGREKIYKKFGEEAIEVLVAEKRERIIYEVADLLYHLLVLLTYNDISLGEVMNELRRRRKEGHHHHHH,soluble
12,MSLEIKPEDTWRLEDIFSTDDAWEKEFQEVKQLLPDAGGFQGKLGDSADKLYEALQYQDHLLERLGRLYSYAHMRYDQDTTNSFYQGLDDRIKNLYSQAASSLAYIVPEILAIDEEKISSFLDEKEELRLYKHSLEEINLQRPHVLSAEAEALLAQASEVLDAPGNTFGMLNNADLEFPSIKDENGEEVEVTHGRYIRFLESDDQRVRRDAFKAVYDTYGKFKNTFSSTLSSNVKKDNFYARVRNYDSARHAALSDNNIPESVYENLVNTVNDNLHLLHRYIKLRKEVLGLEKLHMYDLFTPLVKDVKMEIPYDEAKDYVLKGLEPLGEEYLSVLKEGFENRWVDVHENKGKRSGAYSSGAYGTNPYILMNWQDNVNNLFTLAHEFGHSVHSYYTRKTQPYPYGNYSIFVAEVASTCNEALLNDYLLKTIDDDQKRLYLLNHYLEGFRGTVFRQTMFAEFEHQIHQKAQNNEALTAEALTQDYYELNKKYFGEEDIIIDEEIGLEWSRIPHFYYNYYVYQYATGFSAATALSKQILEEGEPAVERYINFLKAGSSDYPIEVLKKAGVDMTSPAPIADACKVFEEKLNEMEELLNREGHHHHHH,soluble
13,MSLEILTAGPMLTVQDAGRFGLRHMGVSPAGPIDRAAMALANALVGNDPGAAALEFAGPAGRFRCDRPVRFAVAGADCPLRIDARTVSPGESHRLNPGETLTVGVPEGAVWAYLAFSGAIASPEVLGSRATHLRSGVGGRALGAGDRLPLGEDDPEAPCLRPGLRLEAAAPFRETGPIRLILGPQDDHFAPEVIARLTGCDFTVTPQRDRMAMVLGGVELPAERGHDIVSDGTVPGSVQVPGSGTPLVLLAESQTTGGYPKIGTVASVDLARLAQMPVGARFRFALISAREGEDLWIARQAR,not soluble
14,MSLEKAPHLTILVSIDGFRADYLDRGDTPVMKALAENGARAAMRPSFPSVTFPNHYTLITGKRPDRNGIVANTMVDPSVSAEKFTMRSLDPAWWSQAKPFWVSVEQQGKRAAAMFWPGSEVEIDGVRPSRWVKFDQTMPGDARVDQVLNWLDSADGPPIAFSTLYFDIVDTQGHHYGPESPEVRAAAASVDAALGRLVAGLKARGRFESTDIVIVADHGMAPLPAANRVVLDDLVDVSKIRLVTTGAVTAFSPMPGERKAVEAAFLSKPLPHMTCWKKNRIPARFHYGRNSRVPAIVCLSETGWYTTTEAAKQKPSEWDGKDGGAHGFDPYDPTMQAVFVAHGPSFKSGVALPAFDNVDVYALLAKVTGVRPEKTDGSLKVVREEGHHHHHH,not soluble
15,MSLEKLSHGLVTSRNMIRYKSSQLPERVLQFGEGNFLRGFIDWMIQQMNKQNVFNGRVVAIQPTPHGKVVPKLQEQDSLYTVWLRGIADGETVDHHEVITSISRGLNPYTNWQDVLEVAASPDISVVFSNTTEAGLTYLEEGYDKEKAPLSFPGKLAACLWHRYETLGWGEGSGLVIIPCELVEQNGKVLKELVCRYAKAWNFPQEFFTWLERENEFCHTLVDRIVPGFPSDTADECFERLGYEDILLTVAEPYHLFIIEGSERVRKLLPFNEAGLHVRWNHLEKHRNMKVRVLNGTHTFMFALSYLSGVDTVGEAMADEQLCSFIRKGLFEEIIPCVDAPEQEVTAFAETVLERFENPFLQHRLTDIGLNAVNKFRTRLMPTFNDYVAQTGEAPTYLLFSLAALINYYRGVEEDGPFLIGRRREDSYLIRDDLEVIEAFKVGWQQVNTGKLSLAQLCEDLLSKRELWGVDLSMERKVVDKVAESLQIIVEKGMRQAISGVLNQIGGNNHVHKEGHHHHHH,soluble
16,MSLEKWRIYEELTNAVREFESINPVRLIPEVGTNFVYSLPLPYARSTKDVAGVKGRIVKYGNSVKAVGPVEFGASDHLARAVLTYMRFYPEYRSAINIRYSREIIEEIIEIAQERGFKVSFYDRREEPEEIKAKEGATIPWGIETAIKRIKERPDIIYHLGDVGKEPMILVFGRNPREVLEKIKMLIEGHHHHHH,soluble
